Measured values published in patent US20210079092A1 (UNIVERSITY OF TOKYO, published 2021).
Changes are numbered by the printed parent chain. Blank lines part the entries; values can stand above or below the binder they belong to.

Key:
human CADM1 v9 fragment [1] = target: T1, human CADM1 v9 fragment (human, UniProt Q9BY67-4 45-371); assay: sandwich ELISA on culture supernatant, capture E9935, detection HRP-labeled F1222
T1 construct: Extracellular region of CADM1 v8/9 released from cells by protease cleavage; It was tested in, or purified from, the culture supernatant of SBC5 cells stably expressing CADM1 v8/9 (approximately 80 kDa, O-glycosylated region); also called v9 fragment of CADM1; CADM1 v8/9 fragment
T1 sequence: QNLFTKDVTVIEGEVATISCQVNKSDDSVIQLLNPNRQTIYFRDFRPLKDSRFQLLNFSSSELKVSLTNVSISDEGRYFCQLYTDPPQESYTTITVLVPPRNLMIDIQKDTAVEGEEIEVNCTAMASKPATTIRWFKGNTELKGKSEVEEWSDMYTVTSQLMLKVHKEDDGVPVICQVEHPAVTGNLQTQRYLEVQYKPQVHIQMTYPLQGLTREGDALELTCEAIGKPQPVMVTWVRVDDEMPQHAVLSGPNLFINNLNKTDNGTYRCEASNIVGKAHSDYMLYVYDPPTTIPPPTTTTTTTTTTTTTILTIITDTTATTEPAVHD
Procedure: (§1) PBS-T (137 mM NaCl, 8.1 mM […], 2.68 mM KCl, 1.47 mM KH₂PO₄, and 0.05% Tween 20) was used for washing twice, and […] of 1%/BSA (Wako Pure Chemical Industries, Ltd.)/PBS-T was added. The plate was left at rest at room temperature for 1 hour for blocking. The plate was washed with PBS-T twice, and thereafter, a standard for a calibration curve, a culture supernatant, and serum or pleural effusion were added, followed by incubation at room temperature for 1 hour. The plate was washed with PBS-T four times, and […] of the detection antibody diluted in 1% BSA/PBS-T to a concentration of 100 ng/mL was added, followed by incubation at room temperature for 1 hour. The plate was washed with PBS-T six times, and […] of TMB Soluble Reagent (ScyTek Laboratories) was then added for color development. […] of TMB Stop Buffer (ScyTek Laboratories) was further added to terminate the reaction. Finally, using an Ensight plate reader (PerkinElmer), the wavelength at 450 nm was measured.
(§2) (A) The total amount of CADM1 fragment or other cells and (B) the amount of the CADM1 v9 fragment, secreted in the culture supernatant of SCLC were measured according to a sandwich ELISA method. As a capture antibody, the anti-CADM1 mouse monoclonal antibody E9935 was used. As detection antibodies, the anti-CADM1 antibody E9919 and the anti-CADM1 v8/9 antibody F1222, which were HRP-labeled, were used. […]

SEQ ID NO 29 = target: T2, SEQ ID NO 29; assay: ELISA on coated peptide, HRP-labeled antibody
T2 construct: Short fragment obtained by dividing the 13-aa immunogen peptide; also called divided peptide consisting of 7 amino acids
T2 peptide: TATTEPA
Procedure: (§3) The anti-CADM1 v9 antibodies F1222 and F1315 were previously HRP-labeled using Peroxidase Labeling Kit-NH₂ (DOJINDO LABORATORIES), and epitopes were narrowed down according to an ELISA method. Peptide synthesis was outsourced to Toray Research Center, Inc. The peptide was dissolved in 10% DMSO/PBS to prepare a peptide solution having a concentration of 1 mg/mL. […] of the peptide diluted in a carbonate buffer to a concentration of […] was added to Nunc MaxiSorp 96-well plate (Thermo Fisher Scientific) and was left at rest at 4° C. overnight for immobilization. The plate was washed with PBS-T twice, and […] of 1%/BSA/PBS-T was added. The plate was left at rest at room temperature for 1 hour for blocking. The plate was washed with PBS-T twice, and […] of the HRP-labeled antibody diluted in 1% BSA/PBS-T to a concentration of 100 ng/mL was added, followed by incubation at room temperature for 1 hour. The plate was washed with PBS-T four times, and […] of TMB Soluble Reagent (ScyTek Laboratories) was then added for color development. […] of TMB Stop Buffer (ScyTek Laboratories) was further added to terminate the reaction. Finally, using the Ensight plate reader (PerkinElmer), the wavelength at 450 nm was measured.
(§4) In order to narrow down the epitope of the anti-CADM1 v9 antibody, a peptide consisting of 13 amino acids in entire length (SEQ ID NO: 2) used as an immunogen, and peptides obtained by dividing the aforementioned peptide into short fragments (SEQ ID NOS: 28 to 30) were synthesized, and the reactivity of these peptides to the anti-CADM1 v9 antibody was studied using an ELISA method.

SEQ ID NO 30 = target: T3, SEQ ID NO 30; assay: ELISA on coated peptide, HRP-labeled antibody
T3 construct: Short fragment obtained by dividing the 13-aa immunogen peptide; also called divided peptide consisting of 7 amino acids
T3 peptide: TEPAVHD
Procedure: as §3, §4

[2] = target: T4, peptide CDTTATTEPAVHD (entire-length peptide of 13 amino acids used as an immunogen); assay: ELISA on coated peptide, HRP-labeled antibody
T4 construct: Synthetic peptide with an added N-terminal cysteine; It was KLH-coupled only for immunization
T4 peptide: CDTTATTEPAVHD
Procedure: as §3, §4

SEQ ID NO 28 = target: T5, SEQ ID NO 28; assay: ELISA on coated peptide, HRP-labeled antibody
T5 construct: Short fragment obtained by dividing the 13-aa immunogen peptide; also called divided peptide consisting of 7 amino acids
T5 peptide: CDTTATT
Procedure: as §3, §4

human CADM1 v9 fragment [3] = target: T1, human CADM1 v9 fragment; assay: sandwich ELISA on culture supernatant, E9935 as capture antibody, detection HRP-labeled F1222
Procedure: as §1, §2

binding result (human CADM1 v9 fragment [1]): binds | binding result (SEQ ID NO 29): no binding (tested: 100 ng/mL antibody) | binding result (SEQ ID NO 30): no binding (tested: 100 ng/mL antibody) | binding result [2]: binds | binding result (SEQ ID NO 28): no binding (tested: 100 ng/mL antibody)
B1: anti-CADM1 v9 antibody F1222 (antibody, V domains shown)
VH: EVQLVESGGGLVQPKGSLKLSCAASGFTFNTYAMNWVRQAPGKGLEWVARIRSKSNYYTTYYADSVKDRFTISRDDSQSMLYLQMNNLKTEDTAMYYCIRQRHGNFYWGQGTLVTVSA
VL: DIVLTQSPASLAVSLGQRATISCKASQSVDYDGYSYMNWYQQKPGQPPKLLIYAASNLESGIPARFSGSGSGTDFTLNIHPVEEEDAATYYCQQSNEDPPTFGAGTKLELK
notes: Mouse monoclonal antibody from a hybridoma (Cadm1-/- Balb/c mice); It was HRP-labeled (Peroxidase Labeling Kit-NH2) in the sandwich and peptide ELISAs; also called anti-CADM1 v8/9 antibody F1222

binding result (human CADM1 v9 fragment [3]): binds
B2: anti-CADM1 mouse monoclonal antibody E9935 (antibody, V domains shown)
VH: QVQLQQSGTELAKPGASVKMSCKASGYTFTHYWMHWVKQRPGQGLEWIGFINPGTGYTEYNQKFKDKATLTADKSSSTAYIQLSSLTSEDSAVYYCSRASYYSGSSHAWFGFWGQGTLVTVSA
VL: B1 VL with D30N, Y34D, S35N, N96Y, P100W, A104G, L110I
notes: Mouse monoclonal antibody from a hybridoma; It served as the capture antibody in the sandwich ELISA and, crosslinked to Protein A Sepharose, for purification; also called anti-CADM1 antibody E9935
